Assay results published in patent US20250304644A1, “PEPTIDES TRIPLE AGONISTS OF GIP, GLP-1 AND GLP-2” (BAINAN BIOTECH APS, priority 2021, published 2025).
*1 amine or outer side, *2 acyl side, *3 side chain or, on linkers, in order; H or OH if unused. Where no end group is shown, it is not given here. Side-chain parts run from the residue outwards. The star is where a group is joined. C18 diacid = O=C(O)CCCCCCCCCCCCCCCCC(=O)*; γGlu = O=C(O)[C@H](CCC(=O)[*:2])N[*:1]; AEEA = NCCOCCOCC(=O)O

How the values were obtained:
Assay in all cases: cell-based or functional assay
[1] = molecular target: T1, human GLP-2R (glucagon-like peptide-2 receptor) (human, UniProt O95838 1-553)
T1 sequence (looked up): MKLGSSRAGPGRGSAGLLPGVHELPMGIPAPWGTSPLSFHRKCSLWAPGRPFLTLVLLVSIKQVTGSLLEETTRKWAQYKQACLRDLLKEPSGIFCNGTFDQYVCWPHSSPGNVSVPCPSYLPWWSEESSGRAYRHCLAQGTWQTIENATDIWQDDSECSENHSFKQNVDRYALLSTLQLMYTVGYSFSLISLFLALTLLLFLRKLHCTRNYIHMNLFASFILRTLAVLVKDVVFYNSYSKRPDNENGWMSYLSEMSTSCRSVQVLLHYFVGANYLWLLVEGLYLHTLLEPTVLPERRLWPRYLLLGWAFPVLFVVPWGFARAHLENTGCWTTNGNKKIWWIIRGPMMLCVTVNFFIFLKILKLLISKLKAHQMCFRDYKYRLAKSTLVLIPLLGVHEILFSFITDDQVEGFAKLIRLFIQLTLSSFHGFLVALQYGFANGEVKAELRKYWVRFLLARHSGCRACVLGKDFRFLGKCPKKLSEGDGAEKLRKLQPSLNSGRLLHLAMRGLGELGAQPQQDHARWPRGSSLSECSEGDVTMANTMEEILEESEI

[2] = molecular target: T2, human SNAP-tagged GLP-2R (human, UniProt O95838 1-553, SNAP tag labeled with Tag-Lite SNAP-Lumi4-Tb)
T2 sequence (looked up): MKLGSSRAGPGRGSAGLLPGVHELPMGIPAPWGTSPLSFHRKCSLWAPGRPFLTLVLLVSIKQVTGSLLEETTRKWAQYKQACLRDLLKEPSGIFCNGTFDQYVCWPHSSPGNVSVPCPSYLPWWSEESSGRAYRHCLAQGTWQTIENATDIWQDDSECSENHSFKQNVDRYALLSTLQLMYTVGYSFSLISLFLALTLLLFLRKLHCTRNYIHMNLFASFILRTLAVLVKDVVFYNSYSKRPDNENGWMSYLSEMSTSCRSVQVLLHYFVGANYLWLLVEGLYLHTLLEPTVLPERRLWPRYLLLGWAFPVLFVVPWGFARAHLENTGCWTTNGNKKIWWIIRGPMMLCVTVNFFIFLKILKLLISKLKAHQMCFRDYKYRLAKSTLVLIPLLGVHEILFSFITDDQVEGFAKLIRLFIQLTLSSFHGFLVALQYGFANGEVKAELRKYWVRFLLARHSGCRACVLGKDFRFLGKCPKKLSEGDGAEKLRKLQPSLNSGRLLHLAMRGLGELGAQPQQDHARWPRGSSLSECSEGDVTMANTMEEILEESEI

[3] = molecular target: human SNAP-tagged GLP-1R (human, UniProt P43220 24-463, SNAP tag labeled with Tag-Lite SNAP-Lumi4-Tb)
[4] = molecular target: T3, Human N-terminally SNAP-tagged GIPR (human, UniProt P48546 22-466, SNAP tag labeled with Tag-Lite SNAP-Lumi4-Tb)
T3 sequence (looked up): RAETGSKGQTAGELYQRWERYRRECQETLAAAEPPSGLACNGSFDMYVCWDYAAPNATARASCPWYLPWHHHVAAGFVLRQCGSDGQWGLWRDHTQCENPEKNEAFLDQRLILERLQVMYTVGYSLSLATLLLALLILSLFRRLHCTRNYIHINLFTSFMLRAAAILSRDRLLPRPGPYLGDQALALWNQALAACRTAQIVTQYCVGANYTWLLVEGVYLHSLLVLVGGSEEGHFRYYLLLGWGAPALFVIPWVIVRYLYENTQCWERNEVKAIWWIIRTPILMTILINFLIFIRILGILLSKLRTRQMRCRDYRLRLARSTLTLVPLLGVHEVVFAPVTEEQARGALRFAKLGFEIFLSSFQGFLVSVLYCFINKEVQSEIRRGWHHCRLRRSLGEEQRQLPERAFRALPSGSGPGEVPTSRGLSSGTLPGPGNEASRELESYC

[5] = molecular target: human glucagon receptor (GCGR) (human, UniProt P47871 26-477, limits assumed)
[6] = molecular target: human GLP-1R (glucagon-like peptide-1 receptor) (human, UniProt P43220 24-463)

Chain of human glucagon receptor (GCGR) (P47871 26-477 limits assumed): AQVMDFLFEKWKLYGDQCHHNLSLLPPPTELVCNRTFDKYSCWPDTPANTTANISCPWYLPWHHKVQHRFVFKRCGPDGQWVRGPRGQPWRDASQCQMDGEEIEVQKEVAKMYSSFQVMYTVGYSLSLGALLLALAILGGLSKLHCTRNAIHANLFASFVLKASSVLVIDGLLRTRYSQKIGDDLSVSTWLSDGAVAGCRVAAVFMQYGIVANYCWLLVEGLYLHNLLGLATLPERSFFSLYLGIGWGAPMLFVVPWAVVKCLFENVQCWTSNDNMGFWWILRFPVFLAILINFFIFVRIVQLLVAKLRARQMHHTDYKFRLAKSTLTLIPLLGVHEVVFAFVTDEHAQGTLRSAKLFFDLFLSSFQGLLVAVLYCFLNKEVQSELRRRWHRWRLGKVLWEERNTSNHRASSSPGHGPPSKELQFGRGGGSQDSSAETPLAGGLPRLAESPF

- EC50 (nM) GLP-2R [1]: 0.3 nM
- Efficacy GLP-2R [1]: 100
- logEC50 GLP-2R [1]: 9.5
- Absolute hGLP-2R internalization (AUC) [2]: 39.4 AUC
- Relative hGLP-2R internalization (%) [2]: 81%
- Absolute hGLP-1R internalization (AUC) [3]: 91.8 AUC
- Relative hGLP-1R internalization (%) [3]: 109%
- Absolute hGIPR internalization (AUC) [4]: 14.2 AUC
- Relative hGIPR internalization (%) [4]: 38%
- potency in Gs activation, measured as cAMP accumulation (-p Log EC50) [5]: < 7 -p Log EC50
- EC50 (nM) GLP-1R [6]: 0.04 nM
- Efficacy GLP-1R [6]: 112
- logEC50 GLP-1R [6]: 10.4
B1: Compound 20 (peptide)
peptide: HADGTFTSDYSIILDK([AEEA-AEEA-γGlu-C18 diacid])LAARDFINWLIQTKGKKNDWKHNITQ-OH
